From paper PMC2756588

T1: Cyk3, Q07533
T1 sequence (Q07533 1-83, looked up): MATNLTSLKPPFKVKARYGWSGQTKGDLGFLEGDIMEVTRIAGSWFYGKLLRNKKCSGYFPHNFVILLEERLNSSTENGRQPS

T2: Myo5, Q04439
T2 sequence (Q04439 1072-1160, looked up): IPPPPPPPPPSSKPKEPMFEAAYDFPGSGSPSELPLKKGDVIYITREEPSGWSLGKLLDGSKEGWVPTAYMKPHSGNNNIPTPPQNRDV

T3: Sla1-3, P32790
T3 sequence (P32790 344-424, looked up): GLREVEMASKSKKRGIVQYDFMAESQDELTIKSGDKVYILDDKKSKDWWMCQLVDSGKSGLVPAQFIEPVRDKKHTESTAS

T4: Bzz1-1, P38822
T4 sequence (P38822 478-572, looked up): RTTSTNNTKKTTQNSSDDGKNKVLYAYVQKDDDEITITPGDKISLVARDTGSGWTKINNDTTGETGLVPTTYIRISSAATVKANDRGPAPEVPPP

T5: Fus1, P11710
T5 sequence (P11710 432-512, looked up): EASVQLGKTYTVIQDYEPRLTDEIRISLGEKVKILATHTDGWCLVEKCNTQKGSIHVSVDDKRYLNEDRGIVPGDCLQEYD

T6: Abp1, P15891
T6 sequence (P15891 535-592, looked up): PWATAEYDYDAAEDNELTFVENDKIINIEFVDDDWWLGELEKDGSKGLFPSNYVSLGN

T7: Boi1, P38041
T7 sequence (P38041 1-86, looked up): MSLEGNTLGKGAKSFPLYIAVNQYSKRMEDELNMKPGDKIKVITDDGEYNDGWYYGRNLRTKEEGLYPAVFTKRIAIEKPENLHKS

T8: Hse1, P38753
T8 sequence (P38753 208-285, looked up): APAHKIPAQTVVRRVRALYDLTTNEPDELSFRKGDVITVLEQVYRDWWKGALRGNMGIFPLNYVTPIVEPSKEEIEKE

T9: Bud14, P27637
T9 sequence (P27637 247-328, looked up): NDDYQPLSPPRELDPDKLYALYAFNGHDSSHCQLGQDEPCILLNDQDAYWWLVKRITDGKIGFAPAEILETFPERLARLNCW

T10: Bbc1, P47068
T10 sequence (P47068 1-78, looked up): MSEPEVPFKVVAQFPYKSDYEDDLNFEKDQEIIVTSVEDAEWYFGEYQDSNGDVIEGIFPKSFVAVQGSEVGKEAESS

T11: Boi2, P39969
T11 sequence (P39969 32-116, looked up): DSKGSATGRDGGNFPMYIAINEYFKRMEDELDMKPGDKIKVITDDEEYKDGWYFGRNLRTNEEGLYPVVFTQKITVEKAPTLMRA

T12: Lsb1, P53281
T12 sequence (P53281 45-122, looked up): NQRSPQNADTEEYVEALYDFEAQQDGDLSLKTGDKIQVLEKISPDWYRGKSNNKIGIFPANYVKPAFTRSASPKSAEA

T13: Pin3, Q06449
T13 sequence (Q06449 53-122, looked up): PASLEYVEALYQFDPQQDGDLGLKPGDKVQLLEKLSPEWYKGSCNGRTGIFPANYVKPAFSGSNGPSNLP

T14: Lsb3, P43603
T14 sequence (P43603 385-451, looked up): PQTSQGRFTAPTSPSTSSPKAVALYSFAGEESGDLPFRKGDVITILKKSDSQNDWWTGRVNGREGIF

T15: Bzz1-2, P38822
T15 sequence (P38822 568-633, looked up): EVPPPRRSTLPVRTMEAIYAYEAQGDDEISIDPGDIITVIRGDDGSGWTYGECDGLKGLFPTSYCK

T16: Pex13, P80667
T16 sequence (P80667 295-386, looked up): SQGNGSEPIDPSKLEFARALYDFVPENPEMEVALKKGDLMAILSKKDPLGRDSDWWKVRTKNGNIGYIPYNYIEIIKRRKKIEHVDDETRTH

T17: Nbp2, Q12163
T17 sequence (Q12163 103-180, looked up): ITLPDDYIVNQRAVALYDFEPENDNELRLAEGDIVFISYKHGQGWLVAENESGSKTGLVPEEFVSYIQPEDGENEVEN

T18: Lsb4, P32793
T18 sequence (P32793 402-468, looked up): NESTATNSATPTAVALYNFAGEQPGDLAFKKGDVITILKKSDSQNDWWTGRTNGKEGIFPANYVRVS

T19: Hof1, Q05080
T19 sequence (Q05080 590-669, looked up): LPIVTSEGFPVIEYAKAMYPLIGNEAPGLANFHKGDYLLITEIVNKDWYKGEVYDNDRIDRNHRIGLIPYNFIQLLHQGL

T20: Cdc25, P04821
T20 sequence (P04821 50-136, looked up): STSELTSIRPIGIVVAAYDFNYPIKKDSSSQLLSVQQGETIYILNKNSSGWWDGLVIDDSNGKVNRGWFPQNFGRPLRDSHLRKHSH

T21: Sla1-2, P32790
T21 sequence (P32790 60-140, looked up): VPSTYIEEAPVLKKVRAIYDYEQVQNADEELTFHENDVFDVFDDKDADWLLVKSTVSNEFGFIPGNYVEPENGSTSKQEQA

B1: unnamed (peptide)
chain: VTHRLRISIPGITGR
B2: unnamed (peptide)
chain: RLSFFFPLDPAYIRN
B3: unnamed (peptide)
chain: GTIARPLFLVVLFFI

Legend:
Test in all cases: SPOT array
Cyk3, Q07533 = target: T1, Cyk3, Q07533; details: median of control spots 1451
Myo5, Q04439 = target: T2, Myo5, Q04439; details: median of control spots 471
Sla1-3, P32790 = target: T3, Sla1-3, P32790; details: median of control spots 5475
Bzz1-1, P38822 = target: T4, Bzz1-1, P38822; details: median of control spots 4446
Fus1, P11710 = target: T5, Fus1, P11710; details: median of control spots 1200
Abp1, P15891 = target: T6, Abp1, P15891; details: median of control spots 935
Boi1, P38041 = target: T7, Boi1, P38041; details: median of control spots 1162
Hse1, P38753 = target: T8, Hse1, P38753; details: median of control spots 1727
Bud14, P27637 = target: T9, Bud14, P27637; details: median of control spots 956
Bbc1, P47068 = target: T10, Bbc1, P47068; details: median of control spots 796
Boi2, P39969 = target: T11, Boi2, P39969; details: median of control spots 1161
Lsb1, P53281 = target: T12, Lsb1, P53281; details: median of control spots 388
Pin3, Q06449 = target: T13, Pin3, Q06449; details: median of control spots 2171
Lsb3, P43603 = target: T14, Lsb3, P43603; details: median of control spots 406
Bzz1-2, P38822 = target: T15, Bzz1-2, P38822; details: median of control spots 4538
Pex13, P80667 = target: T16, Pex13, P80667; details: median of control spots 1341
Bem1-1, P29366 = details: median of control spots 4282
Bem1-1, P29366, sequence (P29366 55-141): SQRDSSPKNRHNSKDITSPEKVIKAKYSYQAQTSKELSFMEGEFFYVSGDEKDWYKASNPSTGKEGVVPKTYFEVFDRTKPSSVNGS

GST = details: median of control spots 978
Myo3, P36006 = details: median of control spots 468
Nbp2, Q12163 = target: T17, Nbp2, Q12163; details: median of control spots 357
Lsb4, P32793 = target: T18, Lsb4, P32793; details: median of control spots 397
Rvs167, P39743 = details: median of control spots 2707
Rvs167, P39743, sequence (P39743 419-482): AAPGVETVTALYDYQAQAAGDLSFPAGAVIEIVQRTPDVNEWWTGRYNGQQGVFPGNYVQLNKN

Hof1, Q05080 = target: T19, Hof1, Q05080; details: median of control spots 4086
Sho1, P40073 = details: median of control spots 1148
Sho1, P40073, sequence (P40073 287-367): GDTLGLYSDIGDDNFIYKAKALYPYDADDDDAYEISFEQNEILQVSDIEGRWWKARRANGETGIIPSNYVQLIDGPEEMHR

Cdc25, P04821 = target: T20, Cdc25, P04821; details: median of control spots 969
Sla1-2, P32790 = target: T21, Sla1-2, P32790; details: median of control spots 712
Bem1-2, P29366 = details: median of control spots 4347
Bem1-2, P29366, sequence (P29366 139-227): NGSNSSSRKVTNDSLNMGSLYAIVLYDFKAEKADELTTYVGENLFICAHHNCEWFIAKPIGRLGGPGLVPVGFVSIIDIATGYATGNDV

Binder | SPOT intensity (Cyk3, Q07533) | SPOT intensity (Myo5, Q04439) | SPOT intensity (Sla1-3, P32790) | SPOT intensity (Bzz1-1, P38822) | SPOT intensity (Fus1, P11710) | SPOT intensity (Abp1, P15891) | SPOT intensity (Boi1, P38041) | SPOT intensity (Hse1, P38753) | SPOT intensity (Bud14, P27637) | SPOT intensity (Bbc1, P47068) | SPOT intensity (Boi2, P39969) | SPOT intensity (Lsb1, P53281) | SPOT intensity (Pin3, Q06449) | SPOT intensity (Lsb3, P43603) | SPOT intensity (Bzz1-2, P38822) | SPOT intensity (Pex13, P80667) | SPOT intensity (Bem1-1, P29366) | SPOT intensity (GST) | SPOT intensity (Myo3, P36006) | SPOT intensity (Nbp2, Q12163) | also measured
B1 | 0 | 11 | 0 | 0 | 14 | 225 | 0 | 5 | 12 | 30 | 0 | 382 | 46 | 8 | 0 | 20 | 2 | 1 | 13 | 72 | SPOT intensity (Lsb4, P32793): 22; SPOT intensity (Rvs167, P39743): 0; SPOT intensity (Hof1, Q05080): 0; SPOT intensity (Sho1, P40073): 180; SPOT intensity (Cdc25, P04821): 19; SPOT intensity (Sla1-2, P32790): 4; SPOT intensity (Bem1-2, P29366): 4
B2 | 1 | 0 | 113 | 0 | 159 | 28 | 6 | 91 | 12 | 12 | 0 | 0 | 13 | 0 | 3 | 21 | 0 | 1 | 4 | 21 | SPOT intensity (Lsb4, P32793): 0; SPOT intensity (Rvs167, P39743): 0; SPOT intensity (Hof1, Q05080): 48; SPOT intensity (Sho1, P40073): 68; SPOT intensity (Cdc25, P04821): 28; SPOT intensity (Sla1-2, P32790): 0; SPOT intensity (Bem1-2, P29366): 43
B3 | 1 | 0 | 0 | 0 | 9 | 0 | 4 | 0 | 8 | 0 | 1 | 0 | 3 | 0 | 0 | 11 | 0 | 1 | 1 | 0 | SPOT intensity (Lsb4, P32793): 0; SPOT intensity (Rvs167, P39743): 0; SPOT intensity (Hof1, Q05080): 0; SPOT intensity (Sho1, P40073): 0; SPOT intensity (Cdc25, P04821): 18; SPOT intensity (Sla1-2, P32790): 0; SPOT intensity (Bem1-2, P29366): 1
